Source: PMC10892419, “UHPLC-MS/MS Assay for Quantification of Legubicin, a Novel Doxorubicin-Based Legumain-Activated Prodrug, and Its Application to Pharmacokinetic and Tissue Distribution Studies” (Molecules, 2024)
Residues, ends and D or L forms follow the SMILES beside them. *: point of attachment. Doxorubicin(3'-N) = COc1cccc2c1C(=O)c1c(O)c3c(c(O)c1C2=O)C[C@@](O)(C(=O)CO)C[C@@H]3O[C@H]1C[C@H](N*)[C@H](O)[C@H](C)O1; Hexanoyl(6-maleimido) = O=C1C=CC(=O)N1CCCCCC(=O)*

Columns and labels:
[1] = cited from earlier work
[2] = acute toxicological assessment in dogs; ref unpublished preclinical studies at the authors' institution; cited from earlier work
[3] = Tissue-distribution study after i.v. legubicin or doxorubicin; settings: HT1080 tumor-bearing mice
Experimental: The mixture was vortexed for 3 min, and then centrifuged at 22,000× g at 4 °C for 10 min. A final analysis was conducted by injecting 5 µL supernatant into a UHPLC-MS/MS system. Mouse plasma samples were treated in the same way as the rat plasma samples, except for protein precipitation, with 200 µL of 5 pmol/mL IS working solution and injection of 2 µL of supernatant for analysis.
Each legubicin administration group corresponded to a sampling time-point (4, 16, 32, 48, 96, 168, and 240 h after administration). […] Blood samples and tumor, heart, and kidney tissues were collected at the sampling time points (4, 16, 32, 48, 96, 168, and 240 h after dosing). In addition, liver, spleen, lung, stomach, small intestine, gonads, brain, skeletal muscle, and skin were also collected at 4, 32, 96, and 240 h post-dose time points in the legubicin administration group. All whole-blood samples were processed according to the same processing steps, described above, for rat whole-blood samples.
The analysis software (Version 1.5.2, AB Sciex, Vaughan, ON, Canada) was applied to data acquisition and quantification. Pharmacokinetic parameters were calculated with WinNonlin Phoenix (v6.4, Pharsight, Mountain View, CA, USA) with the noncompartmental method, and were presented as mean ± SD (%CV). The “Best fit” strategy in the WinNonlin Phoenix was used for the calculation of elimination half-life and the selection of the elimination phase. Graphs were plotted by GraphPad Software (GraphPad Prism 8.0.2; GraphPad Software, Inc., La Jolla, CA, USA).

[4] = legubicin vs equimolar doxorubicin (9.05 µmol/kg i.v.)

Structure (SMILES)	AUC ([1]; doses equivalent to 2.5 mg/kg of doxorubicin)	clearance (CL) ([1]; published value)	MTD relative to doxorubicin [2]	maximum tolerated dose (MTD) [2]	T/P Ratio of doxorubicin, kidney ([3]; i.v. 9.05 µmol/kg of the labelled drug, n = 6, tissue-to-plasma ratio)	fold decrease in doxorubicin exposure (AUClast) in the heart [3, 4]	fold decrease in doxorubicin exposure (AUClast) in the kidney [3, 4]	fold increase in tumor doxorubicin exposure (AUClast) [3, 4]
COc1cccc2c1C(=O)c1c(O)c3c(c(O)c1C2=O)C[C@@](O)(/C(CO)=N/NC(=O)CCCCCN1C(=O)C=CC1=O)C[C@@H]3O[C@H]1C[C@H](N)[C@H](O)[C@H](C)O1 [DOXO-EMCH, doxorubicin (6-maleimidocaproyl) hydrazone]	536 µM·h	approximately 7.9 mL/h/kg	–	–	–	–	–	–
COc1cccc2c1C(=O)c1c(O)c3c(c(O)c1C2=O)C[C@@](O)(C(=O)CO)C[C@@H]3O[C@H]1C[C@H](NC(=O)[C@H](CC(C)C)NC(=O)[C@H](CC(N)=O)NC(=O)[C@H](C)NC(=O)[C@H](C)NC(=O)CCCCCN2C(=O)C=CC2=O)[C@H](O)[C@H](C)O1 [Legubicin] ({Hexanoyl(6-maleimido)}-AANL-{Doxorubicin(3'-N)})	–	–	tenfold increase compared to doxorubicin	15 mg/kg	28.9	3.3 fold	3.5 fold	1.8 fold
